Here are results for 7 molecules from patent publication US20220267464A1 (Hoffmann-La Roche, published 2022).

Test [1] deals with T1, human CEACAM5 (carcinoembryonic antigen, CEA) on cells (human, UniProt P06731 35-685).
T1 construct: endogenous on MKN45 gastric adenocarcinoma cells; full-length cDNA stably transfected in the CHO-K1 clones; also called huCEACAM5; MKN45 cells
T1 sequence: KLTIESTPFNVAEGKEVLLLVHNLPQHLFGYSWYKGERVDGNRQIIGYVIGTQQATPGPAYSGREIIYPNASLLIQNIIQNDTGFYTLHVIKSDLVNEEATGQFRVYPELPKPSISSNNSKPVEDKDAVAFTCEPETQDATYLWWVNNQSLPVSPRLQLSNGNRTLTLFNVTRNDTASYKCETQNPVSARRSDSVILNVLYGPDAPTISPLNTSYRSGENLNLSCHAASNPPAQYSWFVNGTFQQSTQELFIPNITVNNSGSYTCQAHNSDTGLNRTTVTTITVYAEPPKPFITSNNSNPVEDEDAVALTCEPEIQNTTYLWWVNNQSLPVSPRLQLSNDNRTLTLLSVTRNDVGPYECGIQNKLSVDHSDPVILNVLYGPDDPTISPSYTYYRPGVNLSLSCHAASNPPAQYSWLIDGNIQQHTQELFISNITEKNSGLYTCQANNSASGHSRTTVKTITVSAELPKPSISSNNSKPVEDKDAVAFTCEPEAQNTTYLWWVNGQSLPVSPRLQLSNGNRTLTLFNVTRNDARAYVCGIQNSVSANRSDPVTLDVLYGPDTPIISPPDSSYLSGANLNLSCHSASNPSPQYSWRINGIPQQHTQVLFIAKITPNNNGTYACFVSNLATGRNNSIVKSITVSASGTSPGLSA
Nature of the test: flow cytometry, MKN-45 cells, goat F(ab')2 anti-human Fcγ-PE, gMFI. In general terms: Flow cytometry measures light scatter and fluorescence of single cells or particles in a stream.

The target of test [2] is T1, human CEACAM5 (carcinoembryonic …). Kind of test: flow cytometry, MKN45 cells. On the set-up: AUC: unit not given beside the values.

B1: P1AE3113 (antibody, IgG1, V domains shown)
VH: QVQLVQSGAEVKKPGASVKVSCKASGFNIKDSYMHWVRQAPGQGLEWMGWIDPENGDTEYAPKFQGRVTMTTDTSISTAYMELSRLRSDDTAVYYCNEGTPTGPYYFDYWGQGTLVTVSS
VL: EIQMTQSPSSLSASVGDRVTITCRASQSISSYMHWYQQKPGKAPKLLIYSTSNLASGVPSRFSGSGSGTDFTLTISSLQPEDFATYYCQQRSSYPLTFGGGTKLEIK
notes: huIgG1 P329G LALA; also called MFE-H24 / MFE-L26
As for B1, the binding result in test [1] is “no binding (tested: about 300 nM)”. In test [2], this molecule yielded an AUC of 757.

B2: P1AE3108 (antibody, IgG1, V domains shown)
VH: QVQLVQSGAEVKKPGSSVKVSCKASGFNIKDSYMHWVRQAPGQGLEWMGWIDPENGDTEYAPKFQGRVTITTDESTSTAYMELSSLRSEDTAVYYCNEGTPTGPYYFDYWGQGTLVTVSS
VL: EIQMTQSPSSLSASVGDRVTITCRASQSISSYMHWYQQKPGKAPKLLIYSTSNLASGVPSRFSGSGSGTDFTLTISSLQPEDFATYYCQQRSSYPLTFGGGTKLEIK
notes: huIgG1 P329G LALA; also called MFE-H29 / MFE-L26
B2: in test [1], the binding result is reported as “no binding (tested: about 300 nM)”. In addition, the AUC in test [2] came out at 2090.

B3: P1AE3110 (antibody, IgG1, V domains shown)
VH: QVQLVQSGAEVKKPGASVKVSCKASGFNIKDSYMHWVRQAPGQGLEWMGWIDPENGDTEYAPKFQGRVTMTTDTSISTAYMELSRLRSDDTAVYYCARGTPTGPYYFDYWGQGTLVTVSS
VL: EIQMTQSPSSLSASVGDRVTITCRASQSISSYMHWYQQKPGKAPKLLIYSTSNLASGVPSRFSGSGSGTDFTLTISSLQPEDFATYYCQQRSSYPLTFGGGTKLEIK
notes: huIgG1 P329G LALA; also called MFE-H27 / MFE-L26
Take B3: in test [1], the binding result was “no binding (tested: about 300 nM)”. Also, the AUC in test [2] was 547.

B4: P1AE3109 (antibody, IgG1, V domains shown)
VH: QVQLVQSGAEVKKPGASVKVSCKASGFNIKDSYMHWVRQAPGQGLEWMGWIDPENGDTEYAPKFQGRVTMTRDTSISTAYMELSRLRSDDTAVYYCNEGTPTGPYYFDYWGQGTLVTVSS
VL: EIQMTQSPSSLSASVGDRVTITCRASQSISSYMHWYQQKPGKAPKLLIYSTSNLASGVPSRFSGSGSGTDFTLTISSLQPEDFATYYCQQRSSYPLTFGGGTKLEIK
notes: huIgG1 P329G LALA; also called MFE-H28 / MFE-L26
As to B4, in test [1], the binding result is on record as “no binding (tested: about 300 nM)”. Further, the AUC in test [2] was determined as 695.

B5: P1AE3121 (antibody, IgG1, V domains shown)
VH: QVQLVQSGAEVKKPGASVKVSCKASGFNIKDSYMHWVRQAPGQGLEWMGWIDPENGDTEYAPKFQGRVTMTRDTSISTAYMELSRLRSDDTAVYYCNEGTPTGPYYFDYWGQGTLVTVSS
VL: DIQMTQSPSSLSASVGDRVTITCRASSSVSYMHWYQQKPGKAPKLLIYSTSNLASGVPSRFSGSGSGTDFTLTISSLQPEDFATYYCQQRSSYPLTFGGGTKLEIK
notes: huIgG1 P329G LALA; also called MFE-H28 / MFE-L24
As usually defined, the EC50 is the midpoint of the concentration-response curve. In test [2], B5 displayed an AUC of 17500 and a concentration giving a half-maximal response (EC50) of 17.1 nM.

B6: P1AE3111 (antibody, IgG1, V domains shown)
VH: QVQLVQSGAEVKKPGASVKVSCKASGFNIKDSYMHWVRQAPGQGLEWMGWIDPENGGTNYAQKFQGRVTMTTDTSISTAYMELSRLRSDDTAVYYCNEGTPTGPYYFDYWGQGTLVTVSS
VL: EIQMTQSPSSLSASVGDRVTITCRASQSISSYMHWYQQKPGKAPKLLIYSTSNLASGVPSRFSGSGSGTDFTLTISSLQPEDFATYYCQQRSSYPLTFGGGTKLEIK
notes: huIgG1 P329G LALA; also called MFE-H26 / MFE-L26
With B6, in test [1], the binding result is “no binding (tested: about 300 nM)”. In test [2], the AUC was found to be 578.

B7: P1AE0096-001 MFE23 huIgG1 PG LALA (parental) (antibody, V domains shown)
VH: QVKLQQSGAELVRSGTSVKLSCTASGFNIKDSYMHWLRQGPEQGLEWIGWIDPENGDTEYAPKFQGKATFTTDTSSNTAYLQLSSLTSEDTAVYYCNEGTPTGPYYFDYWGQGTTVTVSS
VL: ENVLTQSPAIMSASPGEKVTITCSASSSVSYMHWFQQKPGTSPKLWIYSTSNLASGVPARFSGSGSGTSYSLTISRMEAEDAATYYCQQRSSYPLTFGAGTKLELK
notes: murine variable domains on huIgG1 P329G L234A L235A; also called parental murine MFE23 huIgG1 P329G LALA antibody
In test [2], B7 came in with an AUC of 83500 and a half-maximal effective concentration (EC50) of 9.36 nM.
